Reference: patent publication US20190183976A1 (GPCR THERAPEUTICS, published 2019)

B1: CXCR4-EGFP (receptor, human, UniProt P61073 1-352, looked up)
chain: MEGISIYTSDNYTEEMGSGDYDSMKEPCFREENANFNKIFLPTIYSIIFLTGIVGNGLVILVMGYQKKLRSMTDKYRLHLSVADLLFVITLPFWAVDAVANWYFGNFLCKAVHVIYTVNLYSSVLILAFISLDRYLAIVHATNSQRPRKLLAEKVVYVGVWIPALLLTIPDFIFANVSEADDRYICDRFYPNDLWVVVFQFQHIMVGLILPGIVILSCYCIIISKLSHSKGHQKRKALKTTVILILAFFACWLPYYIGISIDSFILLEIIKQGCEFENTVHKWISITEALAFFHCCLNPILYAFLGAKFKTSAQHALTSVSRGSSLKILSKGKRGGHSSVSTESESSSFHSS
notes: whole, on cells; also called CXCR4-GFP; CXCR-EGFP; not shown: EGFP/GFP from the pAdHTS-GFPC vector
B2: CXCR4-VN (receptor, human, UniProt P61073 1-352, looked up)
chain: B1 chain
notes: whole, on cells; Adenovirus-expressed in U-2 OS cells; also called CXCR4 fused with N-terminal fragment of Venus; not shown: VNm10, N-terminal fragment of Venus (VN154 variant with L46F and L64F)
B3: ADRA1A-VC (receptor, human, UniProt P35348 1-466, looked up)
chain: MVFLSGNASDSSNCTQPPAPVNISKAILLGVILGGLILFGVLGNILVILSVACHRHLHSVTHYYIVNLAVADLLLTSTVLPFSAIFEVLGYWAFGRVFCNIWAAVDVLCCTASIMGLCIISIDRYIGVSYPLRYPTIVTQRRGLMALLCVWALSLVISIGPLFGWRQPAPEDETICQINEEPGYVLFSALGSFYLPLAIILVMYCRVYVVAKRESRGLKSGLKTDKSDSEQVTLRIHRKNAPAGGSGMASAKTKTHFSVRLLKFSREKKAAKTLGIVVGCFVLCWLPFFLVMPIGSFFPDFKPSETVFKIVFWLGYLNSCINPIIYPCSSQEFKKAFQNVLRIQCLCRKQSSKHALGYTLHPPSQAVEGQHKDMVRIPVGSRETFYRISKTDGVCEWKFFSSMPRGSARITVSKDQSSCTTARVRSKSFLQVCCCVGPSTPSLDKNHQVPTIKVHTISLSENGEEV
notes: whole, on cells; Adenovirus-expressed in U-2 OS cells; not shown: VC155, C-terminal fragment of Venus

What was measured:
CHRM1-VC [1] = biological target: T1, CHRM1-VC (human, UniProt P11229 1-460); test: co-internalization of CXCR4-GFP after GPCRx agonist, U-2 OS cells
T1 construct: whole, on cells; Adenovirus-expressed in U-2 OS cells; not shown: VC155, C-terminal fragment of Venus
T1 sequence (looked up): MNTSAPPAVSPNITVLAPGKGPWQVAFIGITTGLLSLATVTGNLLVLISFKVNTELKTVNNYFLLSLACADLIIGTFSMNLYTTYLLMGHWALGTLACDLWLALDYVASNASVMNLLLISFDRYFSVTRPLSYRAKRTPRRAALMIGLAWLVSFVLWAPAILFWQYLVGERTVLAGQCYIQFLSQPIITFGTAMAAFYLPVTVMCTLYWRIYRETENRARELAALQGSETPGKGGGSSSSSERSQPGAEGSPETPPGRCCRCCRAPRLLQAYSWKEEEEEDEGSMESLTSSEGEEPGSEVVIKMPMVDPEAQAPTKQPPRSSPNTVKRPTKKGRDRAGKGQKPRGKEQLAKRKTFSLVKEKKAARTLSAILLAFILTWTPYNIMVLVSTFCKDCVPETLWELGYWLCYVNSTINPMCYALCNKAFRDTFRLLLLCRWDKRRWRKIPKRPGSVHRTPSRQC
Method: (§1) Images were obtained before and 30 min after agonist stimulation, and analyzed using IN Cell Analyzer 2000.
(§2) U-2 OS cells were seeded at a density of 3000 cells per well in a black 96-well clear-bottom plate in 100 μl of McCoy's 5A medium supplemented with 10% FBS. […] Two days post-transduction, cells were stimulated with GPCRx agonists for 30 min and fixed with 2% formaldehyde.

SSTR2-VC [2] = biological target: T2, SSTR2-VC (human, UniProt P30874 1-369); test: as above
T2 construct: whole, on cells; Adenovirus-expressed in U-2 OS cells; not shown: VC155, C-terminal fragment of Venus
Method: as §1, §2

APLNR-VC [3] = biological target: T3, APLNR-VC (human, UniProt P35414 1-380); test: as above
T3 construct: whole, on cells; Adenovirus-expressed in U-2 OS cells; not shown: VC155, C-terminal fragment of Venus
T3 sequence (looked up): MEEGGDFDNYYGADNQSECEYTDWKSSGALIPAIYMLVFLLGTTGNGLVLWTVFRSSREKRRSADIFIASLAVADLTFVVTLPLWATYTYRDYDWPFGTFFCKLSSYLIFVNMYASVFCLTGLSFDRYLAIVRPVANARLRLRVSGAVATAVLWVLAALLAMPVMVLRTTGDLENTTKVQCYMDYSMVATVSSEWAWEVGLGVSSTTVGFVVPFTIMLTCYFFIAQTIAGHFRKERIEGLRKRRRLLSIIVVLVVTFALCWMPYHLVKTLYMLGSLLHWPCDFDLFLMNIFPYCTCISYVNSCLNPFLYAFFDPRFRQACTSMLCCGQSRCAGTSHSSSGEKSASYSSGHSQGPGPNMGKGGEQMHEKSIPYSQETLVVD
Method: as §1, §2

MLNR-VC [4] = biological target: T4, MLNR-VC (human, UniProt O43193 1-412); test: as above
T4 construct: whole, on cells; Adenovirus-expressed in U-2 OS cells; not shown: VC155, C-terminal fragment of Venus
Method: as §1, §2

NTSR1-VC [5] = biological target: T5, NTSR1-VC (human, UniProt P30989 1-418); test: as above
T5 construct: whole, on cells; Adenovirus-expressed in U-2 OS cells; not shown: VC155, C-terminal fragment of Venus
Method: as §1, §2

TACR3-VC [6] = biological target: T6, TACR3-VC (human, UniProt P29371 1-465); test: as above
T6 construct: whole, on cells; Adenovirus-expressed in U-2 OS cells; not shown: VC155, C-terminal fragment of Venus
T6 sequence (looked up): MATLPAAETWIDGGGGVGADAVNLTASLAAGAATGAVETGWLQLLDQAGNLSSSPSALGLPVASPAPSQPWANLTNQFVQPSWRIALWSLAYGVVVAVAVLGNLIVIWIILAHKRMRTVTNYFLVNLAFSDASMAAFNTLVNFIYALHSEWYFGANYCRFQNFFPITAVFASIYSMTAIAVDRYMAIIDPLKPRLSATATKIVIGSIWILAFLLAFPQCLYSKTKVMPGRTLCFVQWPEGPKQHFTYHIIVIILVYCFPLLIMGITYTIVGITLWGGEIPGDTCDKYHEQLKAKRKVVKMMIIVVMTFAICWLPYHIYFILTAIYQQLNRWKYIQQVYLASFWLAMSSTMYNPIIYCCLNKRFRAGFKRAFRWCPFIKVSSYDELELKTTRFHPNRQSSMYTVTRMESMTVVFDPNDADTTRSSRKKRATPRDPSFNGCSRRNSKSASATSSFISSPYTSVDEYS
Method: as §1, §2

HRH1-VC [7] = biological target: T7, HRH1-VC (human, UniProt P35367 1-487); test: as above
T7 construct: whole, on cells; Adenovirus-expressed in U-2 OS cells; not shown: VC155, C-terminal fragment of Venus
Method: as §1, §2

ADRB2-VC [8] = biological target: T8, ADRB2-VC (human, UniProt P07550 1-413); test: as above
T8 construct: whole, on cells; Adenovirus-expressed in U-2 OS cells; not shown: VC155, C-terminal fragment of Venus
Method: as §1, §2

EDNRB-VC [9] = biological target: T9, EDNRB-VC (human, UniProt P24530 27-442); test: as above
T9 construct: whole, on cells; Adenovirus-expressed in U-2 OS cells; not shown: VC155, C-terminal fragment of Venus
T9 sequence (looked up): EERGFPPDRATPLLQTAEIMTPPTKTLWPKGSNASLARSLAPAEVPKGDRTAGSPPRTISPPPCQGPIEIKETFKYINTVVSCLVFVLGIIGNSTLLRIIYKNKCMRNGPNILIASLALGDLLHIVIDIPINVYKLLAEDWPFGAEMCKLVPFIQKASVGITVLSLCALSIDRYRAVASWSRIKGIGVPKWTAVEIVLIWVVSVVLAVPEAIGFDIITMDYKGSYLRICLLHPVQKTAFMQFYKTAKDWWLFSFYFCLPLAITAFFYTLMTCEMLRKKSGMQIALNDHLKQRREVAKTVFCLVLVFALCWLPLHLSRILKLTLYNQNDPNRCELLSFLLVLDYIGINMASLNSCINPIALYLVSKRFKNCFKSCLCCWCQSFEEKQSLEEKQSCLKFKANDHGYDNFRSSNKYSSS
Method: as §1, §2

ADRB2 = biological target: T10, ADRB2 (human, UniProt P07550 1-413); test: internalization inhibition assay, CXCR4-GFP U-2 OS cells transduced with GPCRx; CXCL12 and/or GPCRx antagonist
T10 construct: whole, on cells; Untagged: adenovirus-expressed in U-2 OS or MDA-MB-231 cells, or endogenous in patient derived cells and PDX tissue; also called Adrenoceptor Beta 2; Ad-ADRB2
Method: (§3) Internalization of CXCR4-GFP was observed as GFP granules using IN Cell Analyzer 2500. Loss of GFP expression on the cell surface or appearance of GFP granules inside the cells were considered as CXCR4-GFP co-internalization.
(§4) CXCR4-GFP expressed U-2 OS cells were seeded at a density of 5000 cells per well in a black 96-well clear-bottom plate in 100 μl of McCoy's 5A medium supplemented with 10% FBS. On the following day, the cells were transduced with adenoviruses encoding GPCRx (30 MOI).

CHRM1 = biological target: T11, CHRM1 (human, UniProt P11229 1-460); test: as above
T11 construct: whole, on cells; Untagged: adenovirus-expressed in U-2 OS or MDA-MB-231 cells, or endogenous in patient derived cells; also called Cholinergic Receptor Muscarinic 1
T11 sequence (looked up): T1 sequence (looked up)
Method: as §3, §4

HRH1 = biological target: T12, HRH1 (human, UniProt P35367 1-487); test: as above
T12 construct: whole, on cells; Untagged: adenovirus-expressed in U-2 OS or MDA-MB-231 cells, or endogenous in MDA-MB-231 cells; also called Histamine Receptor H1
Method: as §3, §4

SSTR2-VC [10] = biological target: T2, SSTR2-VC; test: BiFC and co-internalization assay, U-2 OS cells
APLNR-VC [11] = biological target: T3, APLNR-VC; test: BiFC and co-internalization assay, U-2 OS cells
CNR2-VC = biological target: T13, CNR2-VC (human, UniProt P34972 1-360); test: BiFC and co-internalization assay, U-2 OS cells
T13 construct: whole, on cells; Adenovirus-expressed in U-2 OS cells; also called Cannabinoid Receptor 2-VC; CB2; not shown: VC155, C-terminal fragment of Venus

CHRM1-VC [12] = biological target: T1, CHRM1-VC; test: BiFC, U-2 OS cells
Method: (§5) Images of about 200 cells from each well were analyzed with Multi-target analysis software in IN Cell Developer ToolBox (GE Healthcare, Waukesha, Wis.). Cell boundary was marked based on Hoechst signal, and fluorescence intensity per cell was measured. Cells with fluorescence intensities higher than background level were considered as BiFC positive cells. […] Positive cells were determined, and positive cell count ratio (“BiFC score”) was calculated as (positive cells/total cells)×100 (see Table 4 below).

MLNR-VC [13] = biological target: T4, MLNR-VC; test: BiFC, U-2 OS cells
Method: as §5

NTSR1-VC [14] = biological target: T5, NTSR1-VC; test: BiFC, U-2 OS cells
Method: as §5

TACR3-VC [15] = biological target: T6, TACR3-VC; test: BiFC, U-2 OS cells
Method: as §5

HRH1-VC [16] = biological target: T7, HRH1-VC; test: BiFC, U-2 OS cells
Method: as §5

ADRB2-VC [17] = biological target: T8, ADRB2-VC; test: BiFC, U-2 OS cells
Method: as §5

EDNRB-VC [18] = biological target: T9, EDNRB-VC; test: BiFC, U-2 OS cells
Method: as §5

PTGER2-VC = biological target: T14, PTGER2-VC (human, UniProt P43116 1-358); test: BiFC, U-2 OS cells
T14 construct: whole, on cells; Adenovirus-expressed in U-2 OS cells; not shown: VC155, C-terminal fragment of Venus
Method: as §5

GCGR-VC = biological target: T15, GCGR-VC (human, UniProt P47871 26-477); test: BiFC, U-2 OS cells co-expressing CXCR4-VN and GCGR-VC
T15 construct: whole, on cells; Adenovirus-expressed in U-2 OS cells; also called glucagon receptor-VC; not shown: VC155, C-terminal fragment of Venus
Method: as §5

CXCR4-VN = biological target: B2; test: BiFC, U-2 OS cells; score=(positive cells/total cells)x100
Method: as §5

T4 sequence (O43193 whole entry, the tested form may be a part): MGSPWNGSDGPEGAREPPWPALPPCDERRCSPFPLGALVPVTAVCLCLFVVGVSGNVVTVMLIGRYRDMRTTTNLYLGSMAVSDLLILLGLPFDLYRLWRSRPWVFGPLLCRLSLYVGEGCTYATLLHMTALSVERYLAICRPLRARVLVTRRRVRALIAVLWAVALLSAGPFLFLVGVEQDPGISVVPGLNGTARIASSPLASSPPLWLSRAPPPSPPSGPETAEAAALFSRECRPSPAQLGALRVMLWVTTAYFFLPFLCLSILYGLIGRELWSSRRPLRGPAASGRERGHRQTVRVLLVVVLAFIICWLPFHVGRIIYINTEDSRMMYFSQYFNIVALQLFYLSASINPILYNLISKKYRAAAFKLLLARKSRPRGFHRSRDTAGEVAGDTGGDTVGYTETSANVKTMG
T2 sequence (P30874 whole entry, the tested form may be a part): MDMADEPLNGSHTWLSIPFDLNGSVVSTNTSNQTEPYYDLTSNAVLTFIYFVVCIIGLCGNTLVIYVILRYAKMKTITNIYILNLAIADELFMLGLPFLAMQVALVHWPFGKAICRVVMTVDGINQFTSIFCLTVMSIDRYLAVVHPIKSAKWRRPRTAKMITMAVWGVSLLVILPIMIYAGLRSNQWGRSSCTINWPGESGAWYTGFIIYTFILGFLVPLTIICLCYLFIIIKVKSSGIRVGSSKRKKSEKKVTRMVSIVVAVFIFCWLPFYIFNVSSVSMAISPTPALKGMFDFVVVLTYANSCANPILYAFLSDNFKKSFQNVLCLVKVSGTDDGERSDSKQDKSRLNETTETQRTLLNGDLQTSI
T7 sequence (P35367 whole entry, the tested form may be a part): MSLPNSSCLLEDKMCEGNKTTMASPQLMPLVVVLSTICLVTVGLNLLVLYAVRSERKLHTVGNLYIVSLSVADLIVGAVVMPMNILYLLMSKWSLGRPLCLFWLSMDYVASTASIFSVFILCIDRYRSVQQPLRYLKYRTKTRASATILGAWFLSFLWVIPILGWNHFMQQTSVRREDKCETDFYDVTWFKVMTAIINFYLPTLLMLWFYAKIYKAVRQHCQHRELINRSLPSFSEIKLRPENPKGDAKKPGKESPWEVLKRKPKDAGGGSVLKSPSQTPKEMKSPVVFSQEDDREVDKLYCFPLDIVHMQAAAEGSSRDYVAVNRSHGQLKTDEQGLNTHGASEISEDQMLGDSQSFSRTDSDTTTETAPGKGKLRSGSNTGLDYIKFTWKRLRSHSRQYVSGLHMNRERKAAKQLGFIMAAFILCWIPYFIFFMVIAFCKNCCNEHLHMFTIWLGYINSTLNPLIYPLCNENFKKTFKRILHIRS
T5 sequence (P30989 whole entry, the tested form may be a part): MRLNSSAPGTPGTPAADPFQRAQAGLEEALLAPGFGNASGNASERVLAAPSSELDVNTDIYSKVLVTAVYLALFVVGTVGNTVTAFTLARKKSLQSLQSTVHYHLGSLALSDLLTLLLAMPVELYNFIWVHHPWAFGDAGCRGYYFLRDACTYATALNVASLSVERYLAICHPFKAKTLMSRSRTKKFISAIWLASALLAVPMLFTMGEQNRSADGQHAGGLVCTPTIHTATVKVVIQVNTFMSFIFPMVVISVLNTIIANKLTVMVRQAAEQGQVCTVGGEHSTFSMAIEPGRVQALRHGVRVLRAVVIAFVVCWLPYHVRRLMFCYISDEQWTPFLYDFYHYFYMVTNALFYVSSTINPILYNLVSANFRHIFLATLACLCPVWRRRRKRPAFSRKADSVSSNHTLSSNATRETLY
T12 sequence (P35367 whole entry): as the sequence (P35367 whole entry, the tested form may be a part) above
T13 sequence (P34972 whole entry, the tested form may be a part): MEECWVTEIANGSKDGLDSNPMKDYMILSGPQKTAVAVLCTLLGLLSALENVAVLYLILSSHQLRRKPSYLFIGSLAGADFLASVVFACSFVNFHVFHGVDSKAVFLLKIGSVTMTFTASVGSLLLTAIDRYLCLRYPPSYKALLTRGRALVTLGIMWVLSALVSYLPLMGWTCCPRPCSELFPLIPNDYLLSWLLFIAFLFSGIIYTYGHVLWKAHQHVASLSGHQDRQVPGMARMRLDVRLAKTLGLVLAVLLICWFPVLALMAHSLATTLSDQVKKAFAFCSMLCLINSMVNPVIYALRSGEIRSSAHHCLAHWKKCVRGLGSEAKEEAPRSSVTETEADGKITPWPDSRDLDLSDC
T14 sequence (P43116 whole entry, the tested form may be a part): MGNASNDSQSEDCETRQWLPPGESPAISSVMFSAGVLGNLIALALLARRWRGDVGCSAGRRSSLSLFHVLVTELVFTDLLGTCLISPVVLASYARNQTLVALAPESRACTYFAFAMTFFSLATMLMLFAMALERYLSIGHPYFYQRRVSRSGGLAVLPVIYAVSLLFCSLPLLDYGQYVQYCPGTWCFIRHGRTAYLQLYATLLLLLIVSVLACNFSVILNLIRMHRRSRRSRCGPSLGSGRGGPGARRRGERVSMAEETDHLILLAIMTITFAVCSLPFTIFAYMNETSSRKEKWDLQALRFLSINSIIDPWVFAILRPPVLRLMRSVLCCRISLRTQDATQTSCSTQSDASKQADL
T15 sequence (P47871 26-477): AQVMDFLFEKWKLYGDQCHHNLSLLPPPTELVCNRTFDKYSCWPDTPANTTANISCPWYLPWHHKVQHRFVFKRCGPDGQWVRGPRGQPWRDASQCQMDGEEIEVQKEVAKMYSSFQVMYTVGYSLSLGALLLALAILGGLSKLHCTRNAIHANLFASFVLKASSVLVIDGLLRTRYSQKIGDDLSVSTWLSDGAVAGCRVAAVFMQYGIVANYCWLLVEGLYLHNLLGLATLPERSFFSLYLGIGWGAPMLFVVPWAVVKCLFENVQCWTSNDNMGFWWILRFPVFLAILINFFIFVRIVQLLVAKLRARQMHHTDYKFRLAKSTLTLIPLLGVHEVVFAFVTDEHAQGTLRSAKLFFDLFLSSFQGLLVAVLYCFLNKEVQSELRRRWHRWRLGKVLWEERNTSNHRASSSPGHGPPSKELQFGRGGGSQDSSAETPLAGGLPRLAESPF

B1
binds: binding result (CHRM1-VC [1]) | binding result (SSTR2-VC [2]) | binding result (APLNR-VC [3]) | binding result (MLNR-VC [4]) | binding result (NTSR1-VC [5]) | binding result (TACR3-VC [6]) | binding result (HRH1-VC [7]) | binding result (ADRB2-VC [8]) | binding result (EDNRB-VC [9]) | binding result (ADRB2) | binding result (CHRM1) | binding result (HRH1)

B2
no binding: binding result (GCGR-VC)
binds: binding result (SSTR2-VC [10]) | binding result (APLNR-VC [11]) | binding result (CNR2-VC) | binding result (CHRM1-VC [12]) | binding result (MLNR-VC [13]) | binding result (NTSR1-VC [14]) | binding result (TACR3-VC [15]) | binding result (HRH1-VC [16]) | binding result (ADRB2-VC [17]) | binding result (EDNRB-VC [18]) | binding result (PTGER2-VC)

B3
7.85: BiFC score (CXCR4-VN)
